Reference: patent publication US20240390512A1, “METHODS OF TREATING CHEMOTHERAPY-RESISTANT CANCER WITH AN ANTIBODY-DRUG CONJUGATE” (DAIICHI SANKYO COMPANY, LIMITED, priority 2021, published 2024)
Substitutions are numbered along the chain they refer to.

T1: hCDH6-transfected 293T cells (Homo sapiens, UniProt P55285)
T1 construct: expressed in transfected cells; host or cells: 293T cells (ATCC)
T1 sequence (P55285 19-790): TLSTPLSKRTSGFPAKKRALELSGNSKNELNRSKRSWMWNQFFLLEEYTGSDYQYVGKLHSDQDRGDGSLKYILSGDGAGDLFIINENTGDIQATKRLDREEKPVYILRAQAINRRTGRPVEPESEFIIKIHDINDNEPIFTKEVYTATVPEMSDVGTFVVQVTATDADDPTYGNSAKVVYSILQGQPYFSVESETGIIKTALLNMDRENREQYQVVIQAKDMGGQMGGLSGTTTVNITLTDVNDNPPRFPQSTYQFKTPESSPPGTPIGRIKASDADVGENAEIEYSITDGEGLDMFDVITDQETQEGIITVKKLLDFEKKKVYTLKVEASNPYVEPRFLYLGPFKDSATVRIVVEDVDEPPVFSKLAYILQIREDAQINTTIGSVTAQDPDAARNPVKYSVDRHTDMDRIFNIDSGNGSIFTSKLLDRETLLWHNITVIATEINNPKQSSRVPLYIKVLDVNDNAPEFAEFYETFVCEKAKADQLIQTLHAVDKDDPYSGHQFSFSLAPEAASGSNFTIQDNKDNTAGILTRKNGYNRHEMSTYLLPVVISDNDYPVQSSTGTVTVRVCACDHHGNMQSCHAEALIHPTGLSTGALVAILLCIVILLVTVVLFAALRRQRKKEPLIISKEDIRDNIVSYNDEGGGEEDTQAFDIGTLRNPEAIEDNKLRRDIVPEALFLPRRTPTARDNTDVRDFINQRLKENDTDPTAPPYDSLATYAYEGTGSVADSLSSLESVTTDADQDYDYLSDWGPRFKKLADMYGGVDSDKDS

B1: rG055: rat anti-human CDH6 monoclonal antibody produced by hybridoma rG055; variable regions SEQ ID NO: 20 and 25 (antibody, listed as Rattus norvegicus, V domains shown)
VL: DVQMTHSPSYLAASPGESVSISCKTSKNISNYLVWYQQKPGEAYKLLIYSGSTLQSGTPSRFSGSGSGTDFTLTIRSLEPEDFGLYFCQQYYEKPFTFGSGTKLEIKRA
VH: EVQLQESGPGLVRPSQSLSLSCSVTDYSITSNYWGWIRRFPGNKMEWMGYITYSGYTSYNPSLQSRISITRDTSKNQFFLQLNSVTAEDTATYYCARSINHGGYSYVVDAWGPGASVTVSS
B2: rG061: rat anti-human CDH6 monoclonal antibody produced by hybridoma rG061; variable regions SEQ ID NO: 40 and 45 (antibody, listed as Rattus norvegicus, V domains shown)
VL: B1 VL with H6Q, T25A, S26T, N28S, V34A, L46V, F87S, F96L
VH: EVQLQESGPGLVKPSQSLSLTCSVTGYSITTYYWGWIRKFPGNKMEWMGYISYSGRTSYNPSLKSRMSITRDASKNQFFLQLNSVTTDDTATYYCARSPINHGGYWYFDFWGPGTMVTVSS
B3: rG019: rat anti-human CDH6 monoclonal antibody produced by hybridoma rG019; variable regions SEQ ID NO: 10 and 15 (antibody, listed as Rattus norvegicus, V domains shown)
VL: DIQMTQSPSLLSASVGDRVTLNCKASQNIYKNLAWYQQKLGEGPKLLIYDANTLQTGIPSRFSGSGSGSDFTLTISSLQPEDVATYFCQQYYSGWAFGGVTNLELKRA
VH: QVQLQQSGAELVKPGSSVKISCKASGYTFTRNFMHWIKQQPGNGLEWIGWIYCGDGETEYNQKFNGKATLTADRSSSTAYMELSRLTSEDSAVYFCARGVYGGFAGGYFDFWGQGVMVTVSS
B4: rG056: rat anti-human CDH6 monoclonal antibody produced by hybridoma rG056; variable regions SEQ ID NO: 30 and 35 (antibody, listed as Rattus norvegicus, V domains shown)
VL: DVQMTQSPSSLAASPGESVSISCRATKSIGIYLAWYQQKPGKTFKLLIYSGSTLQSGTPSRFSGSGSGTDFTLTIRSLEPEDFGLYFCQQFYENPFTFGSGTKLEIRRA
VH: EVQLQESGPGLVKPSQSLSLTCSVTDYSITTYFWGWIRKFPGNKMEWMGYMSYRGGTSYNPSLKSRISITRDTSKNQFFLQLNSVTTEDTATYYCARCPNYGGHSLVFDYWGQGVMVTVSS

These molecules were tested against T1, hCDH6-transfected 293T cells (assay: Binding ability of rat anti-CDH6 antibody by flow cytometry). Settings: antibody final concentration 10 ng/mL.
Protocol: The human CDH6-binding activity of the rat anti-CDH6 antibody produced in Reference Example 1)-7 was evaluated by flow cytometry. Using Lipofectamine 2000 (Thermo Fisher Scientific Inc.), pcDNA3.1-hCDH6 produced in Reference Example 1)-1 was transiently introduced into 293T cells (ATCC). The cells were cultured overnight under conditions of 37° C. and 5% CO2, and thereafter, a cell suspension was prepared. The suspension of the transfected 293T cells was centrifuged, and the supernatant was then removed. Thereafter, the cells were suspended by the addition of each of the 4 rat anti-CDH6 monoclonal antibodies (clone Nos: rG019, rG055, rG056 and rG061), which had been prepared in Reference Example 1)-7, or rat IgG control (R&D Systems, Inc.) (final concentration: 10 ng/mL). The cells were left standing at 4° C. for 1 hour. The cells were washed twice with PBS supplemented with 5% FBS, and then suspended by the addition of Anti-Rat IgG (whole molecule)-FITC antibody produced in rabbit (Sigma-Aldrich Co. LLC) that had been 50-fold diluted with PBS supplemented with 5% FBS. The cells were left standing at 4° C. for 1 hour. The cells were washed twice with PBS supplemented with 5% FBS, followed by detection using a flow cytometer (FC500; Beckman Coulter, Inc.). The data was analyzed using FlowJo (Tree Star, Inc.). In the histogram of FIG. 1, the abscissa depicts FITC fluorescence intensity indicating the amount of the antibody bound, and the ordinate depicts a cell count. […] The rat IgG control binds to neither of the cells. As a result, it was confirmed that the 4 produced rat anti-CDH6 monoclonal antibodies bind to 293T cells transfected with pcDNA3.1-hCDH6.

| Molecule | binding to 293T cells transfected with pcDNA3.1-hCDH6 |
| --- | --- |
| B1 | bind |
| B2 | bind |
| B3 | bind |
| B4 | bind |
